Legend:
Test in all cases: cell-based or functional assay
Connexin 37 (human) = Connexin 37 (human) (UniProt P35212)
Connexin 43 (human) = Connexin 43 (human) (UniProt P17302)
Connexin 40 (human) = Connexin 40 (human) (UniProt P36382)
Chain of UniProt P36382 (P36382 whole entry): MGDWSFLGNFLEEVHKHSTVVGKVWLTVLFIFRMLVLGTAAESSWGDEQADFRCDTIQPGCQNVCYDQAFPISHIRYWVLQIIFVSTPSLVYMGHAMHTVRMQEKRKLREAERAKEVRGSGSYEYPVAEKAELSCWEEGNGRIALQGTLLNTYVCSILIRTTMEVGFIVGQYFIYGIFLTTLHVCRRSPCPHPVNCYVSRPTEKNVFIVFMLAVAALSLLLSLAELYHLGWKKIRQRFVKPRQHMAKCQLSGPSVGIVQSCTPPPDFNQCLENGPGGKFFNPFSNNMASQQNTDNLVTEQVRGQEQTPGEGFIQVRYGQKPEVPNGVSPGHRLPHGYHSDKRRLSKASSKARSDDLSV

Chain of UniProt P17302 (P17302 2-382): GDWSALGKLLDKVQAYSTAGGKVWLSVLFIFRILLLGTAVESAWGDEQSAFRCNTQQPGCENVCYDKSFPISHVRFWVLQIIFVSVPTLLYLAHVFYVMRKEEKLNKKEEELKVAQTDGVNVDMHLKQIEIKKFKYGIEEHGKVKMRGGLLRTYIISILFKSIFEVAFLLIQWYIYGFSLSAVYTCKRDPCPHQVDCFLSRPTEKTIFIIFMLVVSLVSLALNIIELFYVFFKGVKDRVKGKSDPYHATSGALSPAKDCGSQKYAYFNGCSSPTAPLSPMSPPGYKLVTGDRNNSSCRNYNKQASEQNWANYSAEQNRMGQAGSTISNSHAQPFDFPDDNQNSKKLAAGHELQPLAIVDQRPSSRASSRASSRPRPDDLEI
Chain of UniProt P35212 (P35212 whole entry): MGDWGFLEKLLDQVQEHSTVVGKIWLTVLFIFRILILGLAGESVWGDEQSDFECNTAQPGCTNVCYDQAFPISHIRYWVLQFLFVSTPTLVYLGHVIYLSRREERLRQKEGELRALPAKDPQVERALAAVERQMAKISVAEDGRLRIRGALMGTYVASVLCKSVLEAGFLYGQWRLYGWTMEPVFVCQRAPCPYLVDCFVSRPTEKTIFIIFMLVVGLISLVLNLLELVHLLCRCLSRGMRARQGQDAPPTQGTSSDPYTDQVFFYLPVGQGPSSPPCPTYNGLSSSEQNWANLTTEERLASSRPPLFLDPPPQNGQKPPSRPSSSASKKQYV

Cx mimetic peptide 43,37Gap27
Lucifer Yellow dye-coupling (GJIC) in HAEC after 16 hours of flow (Connexin 37 (human)): 26%
decrease in flow-induced GJIC (dye-coupling) in HAEC (Connexin 37 (human)): 25%
Lucifer Yellow dye-coupling (GJIC) in HAEC after 16 hours of flow (Connexin 43 (human)): 26%
decrease in flow-induced GJIC (dye-coupling) in HAEC (Connexin 43 (human)): 25%

mimetic peptide 40Gap27
decrease in Lucifer Yellow dye-coupling (GJIC) in HAEC after 5 hours of flow (Connexin 40 (human)): 33%
decrease in Lucifer Yellow dye-coupling (GJIC) in HAEC after 16 hours of flow (Connexin 40 (human)): 57%
